Reference: patent publication US20190055314A1 (ADAGENE, published 2019)
Read-outs that look alike come from different tables or passages of the source.

Columns and labels:
[1] = molecular target: T1, CD137-hisFc fusion protein (Sino Biological Cat 10041-H03H) (human, UniProt Q07011 24-186); assay: BLI Octet, Fab
T1 construct: Bought; also called recombinant human CD137 (fused with human Fc and His tag); not shown: His tag and human Fc

[2] = molecular target: T1, CD137-hisFc fusion protein (Sino …); assay: BLI Octet, Fab; remark: listed apart in the source

| Binder | Kd [1] [nM] | koff [1] [s⁻¹] | kon [1] [M⁻¹ s⁻¹] | Kd [2] [nM] | koff [2] [s⁻¹] | kon [2] [M⁻¹ s⁻¹] |
| --- | --- | --- | --- | --- | --- | --- |
| Fab 4139 (Fab, V domains shown, Fab from E. coli; also called VH8/VL8) VH: EVQLVESGGGLVQPGGSLRLSCAASGYTFTGYAIHWVRQAPGKGLEWVSAISGDGGSTYYADSVKGRFTISRDNSKNTLYLQLNSLRAEDTAVYYCARGYRGYFDYWGQGTLVTVSS VL: DIQLTQSPSSLSASVGDRVTITCRASESVTSTYLAWYQQKPGKAPKLLIYDASNLETGVPSRFSGSGSGTDFTLTISSLQPEDFATYYCQQYSDWPPTFGQGTKVEIKR | 1.65 | 8.17e-05 | 49600 | – | – | – |
| Fab 5348 (Fab, V domains shown, Fab from E. coli; also called VH23/VL23) VH: EVQLVESGGGLVQPGGSLRLSCAASGFSLSTGGVAVGWIRQAPGKGLEWVSGISGDGGTTYYADSVKGRFTISRDNSKNTLYLQLNSLRAEDTAVYYCTREDYGPHAYWGQGTLVTVSS VL: DIQLTQSPSSLSASVGDRVTITCRASQSITTYLNWYQQKPGKAPKLLIYDASNLETGVPSRFSGSGSGTDFTLTISSLQPEDFATYYCQQSYSYSTFGQGTKVEIKR | 10.2 | 0.0133 | 1.31e+06 | – | – | – |
| Fab 5359 (Fab, V domains shown, Fab from E. coli; also called VH27/VL27) VH: EVQLVESGGGLVQPGGSLRLSCAASGFSLSTSGVGVGWIRQAPGKGLEWLALIDWADDKYYSPSLKSRLTISRDNSKNTLYLQLNSLRAEDTAVYYCARGGSDAVLGDWFAYWGQGTLVTVSS VL: DIQLTQSPSSLSASVGDRVTITCRASQGIGSYLAWYQQKPGKAPKLLIYDASNLETGVPSRFSGSGSGTDFTLTISSLQPEDFATYYCQQGYSIWTFGQGTKVEIKR | 0.71 | 0.00033 | 464000 | 0.71 | 0.00033 | 460000 |
| Fab 5302 (Fab, V domains shown, Fab from E. coli; also called VH13/VL13) VH: EVQLVESGGGLVQPGGSLRLSCAASGFSLSTGGVGVAWIRQAPGKGLEWVSSISGYGSTTYYADSVKGRFTISRDNSKNTLYLQLNSLRAEDTAVYYCAREGSDAVLGDWFGYWGQGTLVTVSS VL: DIQLTQSPSSLSASVGDRVTITCQASQDITTYLAWYQQKPGKAPKLLIYDASNRATGIPSRFSGSGSGTDFTLTISSLQPEDFATYYCQQGYYLWTFGQGTKVEIKR | 1.21 | 0.000426 | 354000 | 1.2 | 0.00043 | 350000 |
| Fab 4140 (Fab, V domains shown, Fab from E. coli; also called VH9/VL9) VH: EVQLVESGGGLVQPGGSLRLSCAASGYSISSGYHWNWIRQAPGKGLEWVSSISGSGGSTYYADSVKGRFTISRDNSKNTLYLQLNSLRAEDTAVYYCARDPNYYSSGSYFDYWGQGTLVTVSS VL: DIQLTQSPSSLSASVGDRVTITCRASQGIGSFLGWYQQKPGKAPKLLIYDASNRATGIPSRFSGSGSGTDFTLTISSLQPEDFATYYCQQSYSLWTFGQGTKVEIKR | < 0.001 | < 1e-07 | 25700 | – | – | – |
| Fab 5341 (Fab, V domains shown, Fab from E. coli; also called VH20/VL20) VH: EVQLVESGGGLVQPGGSLRLSCAASGYSITSGHHWAWIRQAPGKGLEWVSAISGDGSTTYYADSVKGRFTISRDNSKNTLYLQLNSLRAEDTAVYYCAREGSTAVTGDWFAYWGQGTLVTVSS VL: DIQLTQSPSSLSASVGDRVTITCSASSRVGYVHWYQQKPGKAPKLLIYDASSLESGVPSRFSGSGSGTDFTLTISSLQPEDFATYYCQQGYYTWTFGQGTKVEIKR | 29.3 | 0.00188 | 64200 | – | – | – |
| Fab 5413 (Fab, V domains shown, Fab from E. coli; also called VH38/VL38) VH: EVQLVESGGGLVQPGGSLRLSCAASGFSLSTGGVAVGWIRQAPGKGLEWLALIDWDGDKSYSTSLKSRLTISRDNSKNTLYLQLNSLRAEDTAVYYCAREGSTAVVGDWFDYWGQGTLVTVSS VL: DIQLTQSPSSLSASVGDRVTITCRASQGISRYLAWYQQKPGKAPKLLIYDASNRATGIPSRFSGSGSGTDFTLTISSLQPEDFATYYCQQGYSLWTFGQGTKVEIKR | 0.993 | 0.000551 | 555000 | 0.99 | 0.00055 | 560000 |
| Fab 5342 (Fab, V domains shown, Fab from E. coli; also called VH21/VL21) VH: EVQLVESGGGLVQPGGSLRLSCAASGFSLSTGGVAVGWIRQAPGKGLEWLALIDWAGDKSYSTSLKSRLTISRDNSKNTLYLQLNSLRAEDTAVYYCAREGEDAVTGDWFAYWGQGTLVTVSS VL: DIQLTQSPSSLSASVGDRVTITCQASQDIRTYLAWYQQKPGKAPKLLIYDASNRATGIPSRFSGSGSGTDFTLTISSLQPEDFATYYCQQGYSIWTFGQGTKVEIKR | 38.9 | 0.00612 | 157000 | 39 | 0.0061 | 160000 |
| Fab 5314 (Fab, V domains shown, Fab from E. coli; also called VH16/VL16) VH: EVQLVESGGGLVQPGGSLRLSCAASGFSLSTGGVAVGWIRQAPGKGLEWLALIDWAGDKSYSTSLKSRLTISRDNSKNTLYLQLNSLRAEDTAVYYCARGGSDTVLGDWFAYWGQGTLVTVSS VL: DIQLTQSPSSLSASVGDRVTITCRASQGVSPYLAWYQQKPGKAPKLLIYDASNRATGIPSRFSGSGSGTDFTLTISSLQPEDFATYYCQQGYSTWTFGQGTKVEIKR | 8.39 | 0.00177 | 210000 | 8.4 | 0.0018 | 210000 |
| Fab 5318 (Fab, V domains shown, Fab from E. coli; also called VH18/VL18) VH: EVQLVESGGGLVQPGGSLRLSCAASGFSLSTSGVAVGWIRQAPGKGLEWLALIDWDDDKYYSTSLKSRLTISRDNSKNTLYLQLNSLRAEDTAVYYCAREGSTAVAGDWFAYWGQGTLVTVSS VL: DIQLTQSPSSLSASVGDRVTITCQASQDIRTFLAWYQQKPGKAPKLLIYDASNRATGIPSRFSGSGSGTDFTLTISSLQPEDFATYYCQQGYSTWTFGQGTKVEIKR | 19 | 0.00269 | 141000 | 19 | 0.0027 | 140000 |
| Fab 4072 (Fab, V domains shown, Fab from E. coli; also called VH2/VL2) VH: EVQLVESGGGLVQPGGSLRLSCAASGFSLSTSGVAVSWIRQAPGKGLEWIGIINPNFGDTNYAQKFQGRVTISRDNSKNTLYLQLNSLRAEDTAVYYCARDEYYGGSYYFDYWGQGTLVTVSS VL: DIQLTQSPSSLSASVGDRVTITCRASQDVRTAVAWYQQKPGKAPKLLIYDASNLETGVPSRFSGSGSGTDFTLTISSLQPEDFATYYCQQSYDWPPTFGQGTKVEIKR | 6.95 | 0.00107 | 154000 | 7 | 0.0011 | 150000 |

Next, values leading:

| Kd [1] [nM] | koff [1] [s⁻¹] | kon [1] [M⁻¹ s⁻¹] | Kd [2] [nM] | koff [2] [s⁻¹] | kon [2] [M⁻¹ s⁻¹] | Binder |
| --- | --- | --- | --- | --- | --- | --- |
| 24.1 | 0.00289 | 120000 | 24 | 0.0029 | 120000 | Fab 5360 (Fab, V domains shown, Fab from E. coli; also called VH28/VL28) VH: EVQLVESGGGLVQPGGSLRLSCAASGYSITSGHYWNWIRQAPGKGLEWVSGISGDGSSTYYADSVKGRFTISRDNSKNTLYLQLNSLRAEDTAVYYCARGGSDAVLGDWFAYWGQGTLVTVSS VL: DIQLTQSPSSLSASVGDRVTITCRASQSISSYLAWYQQKPGKAPKLLIYDASNLETGVPSRFSGSGSGTDFTLTISSLQPEDFATYYCQQGYSTWTFGQGTKVEIKR |
| 23.6 | 0.0075 | 318000 | 24 | 0.0075 | 320000 | Fab 5408 (Fab, V domains shown, Fab from E. coli; also called VH36/VL36) VH: EVQLVESGGGLVQPGGSLRLSCAASGYSITSGYHWSWIRQAPGKGLEWVSSISGYGDTTYYADSVKGRFTISRDNSKNTLYLQLNSLRAEDTAVYYCAREGSDTVLGDWFAYWGQGTLVTVSS VL: DIQLTQSPSSLSASVGDRVTITCQASQDIRTYLAWYQQKPGKAPKLLIYDASNLETGVPSRFSGSGSGTDFTLTISSLQPEDFATYYCQQGYSIWTFGQGTKVEIKR |
| 3.97 | 0.00479 | 1.21e+06 | – | – | – | Fab 5371 (Fab, V domains shown, Fab from E. coli; also called VH33/VL33) VH: EVQLVESGGGLVQPGGSLRLSCAASGFSLSTSGVGVAWIRQAPGKGLEWVSYISGDGGSTYYADSVKGRFTISRDNSKNTLYLQLNSLRAEDTAVYYCAREGSDVVAGDWFAYWGQGTLVTVSS VL: DIQLTQSPSSLSASVGDRVTITCRASQDISSVLAWYQQKPGKAPKLLIYDASSLESGVPSRFSGSGSGTDFTLTISSLQPEDFATYYCQQGYQIWTFGQGTKVEIKR |
| 1.91 | 0.001 | 524000 | 1.9 | 0.001 | 520000 | Fab 5370 (Fab, V domains shown, Fab from E. coli; also called VH32/VL32) VH: EVQLVESGGGLVQPGGSLRLSCAASGFSLSTSGVAVAWIRQAPGKGLEWLALIDWDDDKRYSTSLKSRLTISRDNSKNTLYLQLNSLRAEDTAVYYCAREGSTTVVGDWFDYWGQGTLVTVSS VL: DIQLTQSPSSLSASVGDRVTITCRASQGIGTYLAWYQQKPGKAPKLLIYDASNRATGIPSRFSGSGSGTDFTLTISSLQPEDFATYYCQQGYSLWTFGQGTKVEIKR |
| 17 | 0.00427 | 251000 | 17 | 0.0043 | 250000 | Fab 5409 (Fab, V domains shown, Fab from E. coli; also called VH37/VL37) VH: EVQLVESGGGLVQPGGSLRLSCAASGYSISSGHHWAWIRQAPGKGLEWVSVISGSGSSTYYADSVKGRFTISRDNSKNTLYLQLNSLRAEDTAVYYCAREGSDTVLGDWFAYWGQGTLVTVSS VL: DIQLTQSPSSLSASVGDRVTITCRASQGISSYLAWYQQKPGKAPKLLIYDASNLETGVPSRFSGSGSGTDFTLTISSLQPEDFATYYCQQGYSTWTFGQGTKVEIKR |
| 3.3 | 0.0013 | 395000 | 3.3 | 0.0013 | 400000 | Fab 5404 (Fab, V domains shown, Fab from E. coli; also called VH34/VL34) VH: EVQLVESGGGLVQPGGSLRLSCAASGYSISSGYHWAWIRQAPGKGLEWIGEIYHSGSTYYSPSLKSRVTISRDNSKNTLYLQLNSLRAEDTAVYYCARSPYYYGVFDYWGQGTLVTVSS VL: DIQLTQSPSSLSASVGDRVTITCSASSRVGSVYWYQQKPGKAPKLLIYDASNLETGVPSRFSGSGSGTDFTLTISSLQPEDFATYYCQQYTHDPVTFGQGTKVEIKR |
